The assay addresses human IgG (human). The assay can be described thus: ELISA, IgG coated on plate, detection with Strep-Tactin-HRP. A general note: ELISA stands for enzyme-linked immunosorbent assay.

One may read the Kd as the constant that tells how readily two partners part at equilibrium. High values mean lower affinity, low ones higher affinity.

Substance domain B (from UniProt P38507 212-269) displayed a dissociation constant Kd of 3.1 nM.

Source of the values: US20190177376A1.
